B1: Beta-55 mAb (IgG) (antibody, V domains shown)
VH: QVQLQESGPGLVKPSETLSLTCTVSGDSISSSRYYWGWIRQPPGKGLEWIGTFYYSGITYYNPSLKSRVTIFVDTSKNQFSLKLSSVTAADTAVYYCARPRPPDYYDNSGALLFDIWGQGTMVTVSS
VL: AIRMTQSPSTLSASVGDRVTIACRASQSISAWLAWYQQKPGKAPKLLIYKASSLESGVPSRFSGSGSGTEFTLTINSLQPDDFATYYCQQYISSSPWTFGQGTKVEIK
B2: mAb 158 Fab (COVOX-158) (Fab, V domains shown)
VH: EVQLLESGGDLIQPGGSLRLSCAASGVTVSSNYMSWVRQAPGKGLEWVSIIYPGGSTFYADSVKGRFTISRDNSKNTLYLQMHSLRAEDTAVYYCARDLGSGDMDVWGKGTTVTVSS
VL: DIVMTQSPSFLSASVGDRVTITCRASQGISSYLAWYQQKPGKAPKLLIQAASTLQSGVPSRFSGSGSGTEFTLTISSLQPEDFATYYCQQLNSYRYTFGQGTKVEIK
B3: mAb 58 Fab (COVOX-58) (Fab, V domains shown)
VH: QVQLVESGGGLVQPGRSLRLSCAASGFTFDDYAMHWVRQPPGKGLEWVSGVSWNSGTIGYADSVKGRFIISRDNAKNSLYLQMNSLKAEDTALYYCAREVGGTFGVLISREGGLDYWGQGTLVTVSS
VL: SYELTQPPSVSVAPGQTARITCGGNTIGSKSVHWYQQRPGQAPVLVVYDDSDRPSGIPERFSGSNSGNTATLTISRVEAGDEADYYCQVWDSSSDRVVFGGGTKLTVL
B4: EY6A mAb (IgG) (antibody, V domains shown)
VH: EVQLVESGGGVVQPGRSLRLSCAASAFTFSSYDMHWVRQAPGKGLEWVAVISYDGSNKYYADSVKGRFTISRDNSKNTLYLQMNSLRAEDTAVYYCAKDGGKLWVYYFDYWGQGTLVTVSS
VL: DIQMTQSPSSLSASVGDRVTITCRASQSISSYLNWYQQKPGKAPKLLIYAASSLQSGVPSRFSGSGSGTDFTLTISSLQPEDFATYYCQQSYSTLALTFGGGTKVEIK

Key:
[1] = molecular target: T1, His-tagged SARS-CoV-2 RBD (early pandemic, Wuhan) (SARS-CoV-2, UniProt P0DTC2); assay: SPR; details: both partners purified
[2] = molecular target: T1, His-tagged SARS-CoV-2 RBD (early …); assay: crystal structure; details: both partners purified

Row | Binder | Kd [1] | binding result [2]
1 | B1 | 0.177 nM | 
2 | B2 |  | binds
3 | B3 |  | binds
4 | B4 | 7.8 nM | 
